The record followed here is US20250019443A1 (DUKE UNIVERSITY, published 2025).

Numbering of substitutions follows the chain as printed. Read-outs that look alike come from different tables or passages of the source.

In experiment [1] the target is HLA-E-RL9SIV single chain trimer on transfected 293T cells (human, UniProt P61769 21-119; P13747 22-358). In words: flow cytometry, SCT-transfected 293T cells, MFI bar chart [panel E].
In experiment [2] the target is T1, RL9 SIV (peptide pulsed K562-HLA-E cells) (human).
T1 construct: cell surface
In words: flow cytometry on peptide-pulsed K562-HLA-E cells; AF647 anti-mouse Ig(H+L). In general terms: A flow cytometer gives signals particle by particle.

Experiment [3] addresses T2, Mtb44 (peptide pulsed K562-HLA-E cells) (human).
T2 construct: cell surface
The description is as above.

Experiment [4] addresses T3, RL9HIV (peptide pulsed K562-HLA-E cells) (human).
T3 construct: cell surface
Described as above.

The target of experiment [5] is T4, soluble HLA-E-VL9 complex (HLA-E*01:03, β2M, VL9 peptide) (human).
Experiment [6] addresses T4, soluble HLA-E-VL9 complex (HLA-E*01:03, …). The source holds these as a separate data set.
For experiment [7] the target is unchanged. The source holds these as a separate data set.
For experiment [8] the target is unchanged. This is another data set of the same source.
Experiment [9] addresses HLA-E-RL9HIV with a mutation at P1 (arginine to valine) on transfected 293T cells (human, UniProt P61769 21-119; P13747 22-358). In words: flow cytometry on transfected HEK 293T cells.

B1: CA172 (antibody, V domains shown)
VH: QVQLVESGGGLVKPGGSLRLSCAASGFTFSDYYMSWIRQAPGKGLEWVSYISSSSSYTNYADSVKGRFTISRDNAKNSLYLQMNSLRAEDTAVYYCARALRYFDWYDYWGQGTLVTVSS
VL: EIVLTQSPDFQSVTPKGKVTITCRASQSIGSSLHWYQQKPDQSPKLLIKYASQSFSGVPSRFSGSGSGTEFTLTISSLQPEDFATYYCQQLNSYSPITFGQGTRLEIK
Consider B1, for which the binding result in experiment [1] is reported as “no binding (tested: 2 µg/ml)”.

B2: 3H4 IgM (murine HLA-E-VL9-specific IgM monoclonal antibody 3H4) (antibody, V domains shown)
VH: EVQLQESGPELVKPGASVKIPCKASGYTFTDYNMDWVKQSHGKSLEWIGDINPNNGGTIYNQKFKGKATLTVDKSSSTAYMELRSLTSEDTAVYYCARPDYYGSSYGWYFDVWGTGTTVTVSS
VL: DIVITQSPSSMYASLGERVTITCKASQDINSYLSWFQQKPGKSPKTLIYRANRLVDGVPSRFSGSGSGQDYSLTISSLEYEDMGIYYCLQYDEFPLTFGAGTKLELK
notes: also called mAb 3H4; IgM 3H4
Consider B2, for which the results for the MFI in [2], in experiment [3] and in experiment [4] were 1580, 1180 and 1520, respectively.

B3: 3H4 Gv3 (antibody, V domains shown)
VH: B2 VH with Y101S, Y102A, G103Q, S104Y
VL: B2 VL
Turning to B3, binding in experiment [5] was characterised by a dissociation constant (Kd) of 223 nM.

B4: 3H4 Gv7 (antibody, V domains shown)
VH: B2 VH with Y101G, Y102A, G103R, S104W
VL: B2 VL
Consider B4, for which, in experiment [6], the affinity, expressed as Kd, was 994 nM; the koff (commonly the rate constant with which the complex falls apart) was found to be 0.0349 s⁻¹; the on-rate (kon) (in general, the second-order rate constant of association) came out at 35200 M⁻¹ s⁻¹. Moreover, in experiment [7], binding was put at a Kd of 735 nM, the koff was found to be 0.0345 s⁻¹ and the kon was 47000 M⁻¹ s⁻¹.

B5: 3H4G_v31 (antibody, V domains shown)
VH: B2 VH with Y101S, Y102A, G103Q, S104Y, S105R, Y106W, G107N
VL: B2 VL
notes: also called 3H4_Gv31_G1.4A
As to B5, in experiment [8], binding was characterised by a dissociation constant (Kd) of 62.4 nM, the koff stood at 0.0112 s⁻¹ and the kon came to 180000 M⁻¹ s⁻¹. Besides, the binding result in experiment [9] is “binds”.
